Reference: patent publication US20060246440

Molecular target: T1, GP-NRSF1-8 (UniProt Q13127)
T1 sequence: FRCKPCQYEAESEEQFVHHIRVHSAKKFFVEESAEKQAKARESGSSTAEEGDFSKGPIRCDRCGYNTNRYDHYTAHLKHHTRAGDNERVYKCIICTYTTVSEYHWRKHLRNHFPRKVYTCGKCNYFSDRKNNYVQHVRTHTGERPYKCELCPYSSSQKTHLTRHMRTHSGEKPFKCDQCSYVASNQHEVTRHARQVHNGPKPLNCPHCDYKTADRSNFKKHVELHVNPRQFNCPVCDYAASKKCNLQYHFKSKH
Experiment: one_hybrid
Conditions: bacterial two-hybrid lacZ reporter; nearly 7-fold vs Gal11P only

consensus NRSE (21 bp)
activity (fold activation): 7
